According to patent US20260242735A1 (UNIVERSIT T BASEL, published 2026):

Columns and labels:
Experiment in all cases: flow cytometry on HEK293-T, alanine scan
[1] = target: human CD33 C101A (human, UniProt P20138 18-364)
Experimental: (§1) An alanine scan on human CD33 was performed to the determine the residues on CD33 that are involved in binding to the antibodies investigated. […] Briefly, a mutation library of CD33 was created by high-throughput, site-directed mutagenesis. Each residue was individually mutated to alanine, with alanine codons mutated to serine. The mutant library was arrayed in 384-well microplates and transiently transfected into HEK293-T. Following transfection, cells were incubated with the indicated antibodies (IgG or Fab) at concentrations pre-determined using an independent immunofluorescence titration curve on wild type CD33. […] Binding of each antibody to each mutant clone was determined in duplicates. For each point, background fluorescence was subtracted from the raw data, which were then normalized to antibody reactivity with wild type CD33.
(§2) Critical residues for antibody binding (outlined in dark grey) were residues whose mutations led to a binding of the test Abs of less than 20%. Additional secondary residues (outlined in light grey) were identified that led to a binding of the test Abs of between 20 and 40% as compared to the wild type CD33.

[2] = target: human CD33 L103A (human, UniProt P20138 18-364)
Experimental: as §1, §2

[3] = target: human CD33 S104A (human, UniProt P20138 18-364)
Experimental: as §1, §2

[4] = target: human CD33 V106A (human, UniProt P20138 18-364)
Experimental: as §1, §2

[5] = target: human CD33 D107A (human, UniProt P20138 18-364)
Experimental: as §1, §2

[6] = target: human CD33 R109A (human, UniProt P20138 18-364)
Experimental: as §1, §2

[7] = target: human CD33 R110A (human, UniProt P20138 18-364)
Sequence of human CD33 R110A (P20138 18-364 R110A limits assumed): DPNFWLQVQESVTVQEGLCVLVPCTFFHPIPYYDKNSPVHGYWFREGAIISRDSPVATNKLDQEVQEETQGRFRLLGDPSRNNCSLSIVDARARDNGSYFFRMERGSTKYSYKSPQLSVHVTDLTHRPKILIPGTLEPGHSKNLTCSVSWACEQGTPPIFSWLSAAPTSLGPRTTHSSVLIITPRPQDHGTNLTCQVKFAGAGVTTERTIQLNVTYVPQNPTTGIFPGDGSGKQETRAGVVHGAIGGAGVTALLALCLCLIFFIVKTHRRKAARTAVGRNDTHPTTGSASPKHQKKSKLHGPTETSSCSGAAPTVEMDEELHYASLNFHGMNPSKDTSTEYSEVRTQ
Experimental: as §1, §2

[8] = target: human CD33 D112A (human, UniProt P20138 18-364)
Sequence of human CD33 D112A (P20138 18-364 D112A limits assumed): as the sequence (P20138 18-364 R110A limits assumed) above, with A93R, D95A counted along it
Experimental: as §1, §2

[9] = target: human CD33 F117A (human, UniProt P20138 18-364)
Sequence of human CD33 F117A (P20138 18-364 F117A limits assumed): as the sequence (P20138 18-364 R110A limits assumed) above, with A93R, F100A counted along it
Experimental: as §1, §2

[10] = target: human CD33 R119A (human, UniProt P20138 18-364)
Experimental: as §1, §2

[11] = target: human CD33 R122A (human, UniProt P20138 18-364)
Sequence of human CD33 R122A (P20138 18-364 R122A limits assumed): as the sequence (P20138 18-364 R110A limits assumed) above, with A93R, R105A counted along it
Experimental: as §1, §2

[12] = target: human CD33 S124A (human, UniProt P20138 18-364)
Experimental: as §1, §2

[13] = target: human CD33 T125A (human, UniProt P20138 18-364)
Sequence of human CD33 T125A (P20138 18-364 T125A limits assumed): as the sequence (P20138 18-364 R110A limits assumed) above, with A93R, T108A counted along it
Experimental: as §1, §2

[14] = target: human CD33 Y129A (human, UniProt P20138 18-364)
Experimental: as §1, §2

[15] = target: human CD33 P132A (human, UniProt P20138 18-364)
Experimental: as §1, §2

[16] = target: human CD33 Q133A (human, UniProt P20138 18-364)
Experimental: as §1, §2

[17] = target: human CD33 L134A (human, UniProt P20138 18-364)
Experimental: as §1, §2

[18] = target: human CD33 S135A (human, UniProt P20138 18-364)
Experimental: as §1, §2

[19] = target: human CD33 L93A (human, UniProt P20138 18-364)
Sequence of human CD33 L93A (P20138 18-364 L93A limits assumed): as the sequence (P20138 18-364 R110A limits assumed) above, with L76A, A93R counted along it
Experimental: as §1, §2

[20] = target: human CD33 V138A (human, UniProt P20138 18-364)
Experimental: as §1, §2

[21] = target: human CD33 T142A (human, UniProt P20138 18-364)
Sequence of human CD33 T142A (P20138 18-364 T142A limits assumed): as the sequence (P20138 18-364 R110A limits assumed) above, with A93R, T125A counted along it
Experimental: as §1, §2

[22] = target: human CD33 P145A (human, UniProt P20138 18-364)
Sequence of human CD33 P145A (P20138 18-364 P145A limits assumed): as the sequence (P20138 18-364 R110A limits assumed) above, with A93R, P128A counted along it
Experimental: as §1, §2

[23] = target: human CD33 I147A (human, UniProt P20138 18-364)
Experimental: as §1, §2

[24] = target: human CD33 P150A (human, UniProt P20138 18-364)
Sequence of human CD33 P150A (P20138 18-364 P150A limits assumed): as the sequence (P20138 18-364 R110A limits assumed) above, with A93R, P133A counted along it
Experimental: as §1, §2

[25] = target: human CD33 T152A (human, UniProt P20138 18-364)
Experimental: as §1, §2

[26] = target: human CD33 L153A (human, UniProt P20138 18-364)
Experimental: as §1, §2

[27] = target: human CD33 P155A (human, UniProt P20138 18-364)
Sequence of human CD33 P155A (P20138 18-364 P155A limits assumed): as the sequence (P20138 18-364 R110A limits assumed) above, with A93R, P138A counted along it
Experimental: as §1, §2

[28] = target: human CD33 G156A (human, UniProt P20138 18-364)
Experimental: as §1, §2

[29] = target: human CD33 H157A (human, UniProt P20138 18-364)
Experimental: as §1, §2

[30] = target: human CD33 N160A (human, UniProt P20138 18-364)
Sequence of human CD33 N160A (P20138 18-364 N160A limits assumed): as the sequence (P20138 18-364 R110A limits assumed) above, with A93R, N143A counted along it
Experimental: as §1, §2

[31] = target: human CD33 T162A (human, UniProt P20138 18-364)
Experimental: as §1, §2

[32] = target: human CD33 V165A (human, UniProt P20138 18-364)
Experimental: as §1, §2

[33] = target: human CD33 S166A (human, UniProt P20138 18-364)
Experimental: as §1, §2

[34] = target: human CD33 W167A (human, UniProt P20138 18-364)
Experimental: as §1, §2

[35] = target: human CD33 P96A (human, UniProt P20138 18-364)
Experimental: as §1, §2

[36] = target: human CD33 S97A (human, UniProt P20138 18-364)
Experimental: as §1, §2

Sequence of human CD33 S104A (P20138 18-364 S104A limits assumed): as the sequence (P20138 18-364 R110A limits assumed) above, with S87A, A93R counted along it
Sequence of human CD33 V106A (P20138 18-364 V106A limits assumed): as the sequence (P20138 18-364 R110A limits assumed) above, with V89A, A93R counted along it
Sequence of human CD33 L103A (P20138 18-364 L103A limits assumed): as the sequence (P20138 18-364 R110A limits assumed) above, with L86A, A93R counted along it

B1: Refmab #2 (antibody, V domains shown)
VH: QVQLVQSGAEVKKPGSSVKVSCKASGGTFSDYAISWVRQAPGQGLEWMGRIIPILGVADYAQKFQGRVTITADKSTRTAYMELSSLRSEDTAVYYCARNWADAFDIWGQGTMVTVSS
VL: DIQLTQSPSSLSASVGDRVTITCRASQGISSVLAWYQQKPGKAPKLLIYDASSLESGVPSRFSGSGSGTDFTLTISSLQPEDFATYYCQQFDSSITFGQGTKLEIK
notes: The alanine scan used IgG or Fab
[1]
  Mean % WT Binding: 0.6 % WT binding
[2]
  Mean % WT Binding: 110 % WT binding
[3]
  Mean % WT Binding: 109 % WT binding
[4]
  Mean % WT Binding: 112 % WT binding
[5]
  Mean % WT Binding: 109 % WT binding
[6]
  Mean % WT Binding: 104 % WT binding
[7]
  Mean % WT Binding: 109 % WT binding
[8]
  Mean % WT Binding: 58.7 % WT binding
[9]
  Mean % WT Binding: 111 % WT binding
[10]
  Mean % WT Binding: 130 % WT binding
[11]
  Mean % WT Binding: 3.6 % WT binding
[12]
  Mean % WT Binding: 111 % WT binding
[13]
  Mean % WT Binding: 107 % WT binding
[14]
  Mean % WT Binding: 137 % WT binding
[15]
  Mean % WT Binding: 102 % WT binding
[16]
  Mean % WT Binding: 131 % WT binding
[17]
  Mean % WT Binding: 99.6 % WT binding
[18]
  Mean % WT Binding: 120 % WT binding
[19]
  Mean % WT Binding: 103 % WT binding
[20]
  Mean % WT Binding: 98.5 % WT binding
[21]
  Mean % WT Binding: 104 % WT binding
[22]
  Mean % WT Binding: 105 % WT binding
[23]
  Mean % WT Binding: 92.2 % WT binding
[24]
  Mean % WT Binding: 112 % WT binding
[25]
  Mean % WT Binding: 117 % WT binding
[26]
  Mean % WT Binding: 121 % WT binding
[27]
  Mean % WT Binding: 126 % WT binding
[28]
  Mean % WT Binding: 99.4 % WT binding
[29]
  Mean % WT Binding: 115 % WT binding
[30]
  Mean % WT Binding: 107 % WT binding
[31]
  Mean % WT Binding: 102 % WT binding
[32]
  Mean % WT Binding: 124 % WT binding
[33]
  Mean % WT Binding: 114 % WT binding
[34]
  Mean % WT Binding: 109 % WT binding
[35]
  Mean % WT Binding: 102 % WT binding
[36]
  Mean % WT Binding: 132 % WT binding
